The data set in a line: soluble on expression in E. coli; label from the status in PepcDB or PDB records.
Regarding “MSLTDLIDIHCHLLPAVDDGSKSIEETLSLIDLLEEIGVKQHILTPHIMEEYPSNDAIFLRARFEELLAAITPDKASRLRLAAEYMLDVAFLDRLAEPLLTLGDRYILVETSYMAPPIGLMGLLADLRFKGLSPVLAHPERYLYMEEKDYVAIKKQGVMFQLNLFSLFGAYNSSASEKAYALLEAGYYDLIGTDIHHLQPIARLLSEASLPPDLEGKIKSLVENNTRLFSEGHHHHHH”, the “soluble on expression in E. coli” value is “not soluble”.
As to “VFIEERLEELSTFADSSDLTKIEYGNKKIGIITSGIAYNYAKEVIPDASFLKFGMSYPLPEEKIKEFVENCDKVYVFEELEPIFEQKIKSMGLNVIGKEIFPIIGELSSEIIRNALLNESKEVIDKFDELPQRPPVLCPGCHHRGPFYVLKKLKLHVAGDIGCYTLGGFGPLNAIDTTICMGASIGMAH”, the “soluble on expression in E. coli” value is “not soluble”.
With “MSSGNIHIHSMTGFANAAAECGSKRINLDLRAVNHRFLDIQIRMPDDLRYLESGIREKISSHIARGKVECKIQIQDAENGSQSLELNRDLVGQLAEINKDLRKHHDLAKLGVADILRFPGVLASQRENTEELAKSITELTEKALKDFTAARKREGKKLGEHLLQRLEAMEEIIDALSELFPTLLETHKEKIRARLVEAVGSIDNDRLQQEFALFIQKSDIDEEFSRLRTHIAEVRRIVTEHKGSSGKRLDFLMQELNREANTLGSKSIAAECTQASVELKVLIEQMREQVQNIE”, the “soluble on expression in E. coli” value was “not soluble”.
As for “MSLDVFVLDTSVFTNPEIYRTFEEDQRGAMETFIHLALNSRAEFYMPTSVYTEMRKIMDVGELWAEFEMVVKIRSPRRFQLTVPADFLYEFIEELRYRINKGLRIAEEHTREASGCEDVGKLIARLREKYREALRQGILDSKEDVDVLLLAYELDGVLVSADEGLRTWADKIGIKLIDPKNFKNILESLVRHRFEGHHHHHH”, the “soluble on expression in E. coli” value is given as “soluble”.
With “MGSDKIHHHHHHAASEAEYGKVSKAWTLHADGSQEYRSSMELTLFTHTAMNSTYGESFIVYNPDFQTLKIHSSYTRQKDGTIVKTPDNAFVEVLPRFAADAPAYNQLKEMVVVHTGLELGATIYLDYSIITKPGYYPALDINERLQETSPVKECKVSISVPEGTPLACGLYGSPVKAVEESHDGIKEVHWTLRNIPASSREAFQPKNREASPHLVASTYPSGKAALATLDKRLKESQGYESKTFAQFLTDKSGNEQEKVNIIRDHILNNLSTCPIPMAMTGYTVRDIDTVLRSAYGTPLEIAQLLNVMLNAAGIPSEVLAVYPGHLDTDACGLAAIQTLAVKATVDGKDQYLSASPLTNRGGLDKVVSLSGTSIEIETTPIQIKESRSVAISADQAKDGFAICVLPAISAGIDSWGMSALNSKRSNLFELPSLIREEVTYTVTPAEGMKLQTSTQEQVISKPFGKVTRTITPRGNTIEVVRTIELNKQQFTPAEYSDVRSLIHEWTNPDNRVLLFSL”, the “soluble on expression in E. coli” value is on record as “not soluble”.
With “DRLGPHRAAMMASLNDAVKAASQHHQAEAFGQGDMFGVLTDAPEEVENKYTQVPPWPEKVWLEGERETLGLYLTGHPINAYLKELNKYTSCRLKDATPTRRDQ”, the “soluble on expression in E. coli” value is listed as “not soluble”.
For “MNVFQMRDKLKARLKHLDVEFKFDREEETLRIVRIDNHKGVTIKLNAIVAKYEEQKEKIIDEICYYVEEAIAQMGDEVINNVEDIQIMPVIRATSFDKETKEGHAFVLTEHTAETNIYYALDLGKSYRLIDENMLQTLNLTAQQVKEMSLFNVRKLECRYSTDEVKGNIFYFINTNDGYDASRILNTSFLNHIQHQCEGEMLVGVPHQDVLILADIRNKTGYDVMAHLTMEFFTKGLVPITSLSFGYDNGHLEPIFILGKNNKQK”, the “soluble on expression in E. coli” value was “not soluble”.
On to “GPGSMERNPAHPLDATAKLPVRQKEVTFDSLCVNADDRFVEGLSGKSEERRGFRPNTKLYAANAARTRGRTGGASDLGFTESLPTLNEVIGEEKISHLGRLRARPPRAAEGSTDVIPVARVKAKSSLTRPVHATPTSIPSTRSLWVEGSSVLNQDVGHASAALTHLSDCVAQERRLKVEWEAARLAKIRALRAVVKVFMQSFIDRGSFARSTSVGGKVMSDTLAVARCSVITNTLVGTVQNFMRAFRSRRLCAARGPVSGLQLFPNIAGQESDRFTLSLYSSAPGGAESSVNESYVSPNHSVSDYLEEEEVSRIKQLYFDYFDCEAVSISSAVASGSDMSIFAYSAASSISRPSSPVSRGGDHSSFSHCASTTM”, for which the “soluble on expression in E. coli” value is on record as “not soluble”.
Take “MAHHHHHHMAASLSSSPVRHPIVDNAAVPAASHRIPPPLNGFAFLEHRRSALSHDTFIARDVRQQQHPEQQDNDPAKVIIRVYALEYLRRDEECRFALERECLTARLVVHPHLLPLGAPFASKTDLFVVEKYCAGGDLYELMVSLAKEDPIASEMGAAKGEAPPRSSTGLPTNTVKRFMRELLSAVQYLHRTCGLVHRNIKLETLFIDEEQHLRLGGFGLCAVLPPPSVVTGDREGALDAPDAPEDTASSSHEPLRLCCGSKHYAAPELVQGHPYQGEGVDAWACGVVLFALLTSCFPFDSDDGDEALFRLLCGDVEAHLAQHPAMAAIEDPQACDLVRNLLRPNPNARYTVSEALEHPYLWVA”: the “soluble on expression in E. coli” value is “not soluble”.
As for “MITLPTGTKIWIIAGITDMRCGFNGLASKVQNTLKDDPFSGHIFVFRGRSGKMVKILWADRDGLCLFAKRLAGDPGRESAPDASSVIHATGGDRVATSQTDRTAWHPDITRDKTRE”, the “soluble on expression in E. coli” value is “not soluble”.
Consider “VLDPLGPGAPVLVAGGRVTGQAVAAVLTRFGATPTVCDDDPVMLRPHAERGLPTVSSSDAVQQITGYALVVASPGFSPATPLLAAAAAAGVPIWGDVELAWRLDAAGCYGPPRSWLVVTGTNGKTTTTSMLHAMLIAGGRRAVLCGNIGSAVLDVLDEPAELLAVELSSFQLHWAPSLRPEAGAVLNIAEDHLDWHATMAEYTAAKARVLTGGVAVAGLDDSRAAALLDGSPAQVRVGFRLGEPAARELGVRDAHLVDRAFSDDLTLLPVASIPVPGPVGVLDALAAAALARSVGVPAGAIADAVTSFRVGRHRAEVVAVADGITYVDDSKATNPHAARASVLAYPRVVWIAGGLLKGASLHAEVAAMASRLVGAVLIGRDRAAVAEALSRHAPDVPVVQVVAGEDTGMPATVEVPVACVLDVAKDDKAGETVGAAVMTAAVAAARRMAQPGDTVLLAPAGASFDQFTGYADRGEAFATAVRAVIR”, for which the “soluble on expression in E. coli” value was “not soluble”.
Turning to “MEASKDISRLIEIMEALRQPETGCPWDVVQTFETIKPYTIEEAYEVADAIERKDMDDLCDELGDLLLQVVFHARIAEERGEFTFGDVVHAVTSKMIRRHPHVFDVSDADTPDSVKLQWDQIKAEEKRERAERRARRGITEDFKAGFLGGVQRSQPALTEALKLQEQAARVGFDWSDPAPILDKIEEEIAELREALAEGKPEKVSDELGDLIFALVNIGRHVKADPEDALRGTNTKFRRRFNHIETSLSDNGETLKEASLERMEDLWQAAKRIERSLDTVSS”, the “soluble on expression in E. coli” value was “not soluble”.
For “MSSETFYKTQQDLRKAESHASHAAGGNTPANSNVSAMKVTPNLLIQFGDTAANSTNQSIVDEHTDKAKAIEERKANLPLPDQPPVASDWQSADQRAVNVGSGGVQGSVSGESNTALRDPATAGSSARMSGEELHKETQPTGNVGRQATEGLSDIPGDAKARK”, the “soluble on expression in E. coli” value is “not soluble”.
For “LSSLLKAANLARSTYYYQMATGQAEDRHGALKERIQHIYAQHKGRYGYRRITATLRRAGTLVNHKTVQRLMSALQLKSLVRPKKYRSYLGQVGRVAPNLLQREFEASKPNEKWVTDVTEFNVGGKKLYLSPVLDLYNGEIVAWQTSERPDYTLIREMLDKALRKLRPCETPMLHSDQGWPYQMAAYRRKLAARGLRQSMSRKGNCLDNAAMESFFGTLKSECFRLERFADIDQLRRAIAEYIRYYNHERIKIKLKGLSPVQYRTQPLAA”, the “soluble on expression in E. coli” value is given as “soluble”.
As for “MNTNHYYIRYGCAITLYDNHVSERERLTPKELRFSIEKAVSSFRIQAQEPFSPGSKARFSFVKRKDGNTKNGIFLSPHIVTKDMHAQKVWTKASKFLEIDYLGKDNEREGLLKKDNVSMSNIPISGEYLTFGEKDTGRGSAKISVEEQTYGLITTLTPLKPALQVGKDNFCIIPDIPLNQMVDFIALFDKMQITHLSGEAMLGNIDNKGIPHRPKIFRGNFPNSPKSDRMGAIALLGAIGEFAKHAEFSTLAQKVLDSLKGST”, the “soluble on expression in E. coli” value is “not soluble”.
